Assay results as given in publication PMC6043480, “Molecular basis for the inhibition of the methyl-lysine binding function of 53BP1 by TIRR” (Nature Communications, 2018).
Blank lines part the entries; values can stand above or below the binder they belong to. Ends that are not written are not given here. dimethyl = dimethyl-lysine

B1: Tudor interacting repair regulator (TIRR), residues 6-211 (domain or fragment, human, UniProt Q9BRJ7 6-211, looked up)
chain: VPELKQISRVEAMRLGPGWSHSCHAMLYAANPGQLFGRIPMRFSVLMQMRFDGLLGFPGGFVDRRFWSLEDGLNRVLGLGLGCLRLTEADYLSSHLTEGPHRVVAHLYARQLTLEQLHAVEISAVHSRDHGLEVLGLVRVPLYTQKDRVGGFPNFLSNAFVSTAKCQLLFALKVLNMMPEEKLVEALAAATEKQKKALEKLLPASS
notes: two TIRR molecules in the crystal; also called NUDT16L1; wild-type TIRR; source: E. coli BL21 (DE3), purified (Ni-chelating Sepharose, 3C protease, Superdex 200 Increase); not shown: His6, N-terminal, cleaved
B2: 53BP1 tandem Tudor domain (residues 1459-1634) (domain or fragment, human, UniProt Q12888 1459-1634, looked up)
chain: RSDSPEIPFQAAAGPSDGLDASSPGNSFVGLRVVAKWSSNGYFYSGKITRDVGAGKYKLLFDDGYECDVLGKDILLCDPIPLDTEVTALSEDEYFSAGVVKGHRKESGELYYSIEKEGQRKWYKRMAVILSLEQGNRLREQYGLGPYEAVTPLTKAADISLDNLVEGKRKRRSNVS
notes: also called 53BP1 TTD; TTD; source: E. coli BL21 (DE3), purified (Ni-chelating Sepharose, 3C protease, Source 15Q, Superdex 200 Increase); not shown: His6, N-terminal, cleaved

How the values were obtained:
[1] = molecular target: the molecule itself; experiment: AUC; sedimentation velocity, 60,000 rpm, 20 °C, 10 mM Tris-HCl pH 8.0, 200 mM NaCl, 3 mM DTT; TIRR 53 μM, TTD 35 μM, mixture 20 μM TIRR with 20 μM TTD
[2] = molecular target: B1; experiment: as above; conditions: both partners purified
[3] = molecular target: B1; experiment: ITC; 25 °C, PBS pH 7.0 with 140 mM NaCl; 150 μM 53BP1 TTD injected into 15 μM TIRR or its mutants; 80-100 μM TTD mutant into 8-10 μM TIRR; 750 μM H4K20me2 peptide into 37.5 μM TTD; conditions: both partners purified
[4] = molecular target: B2; experiment: as above; conditions: both partners purified

Binder: B1
stoichiometry N [1]: 2

Binder: B2
stoichiometry N [2]: 1
Kd [3]: ~780 nM

binding result [4]: binds
B3: H4K20me2 peptide (residues 12-25) (peptide, UniProt P62805 13-26, looked up)
peptide: KGGAKRHRK(dimethyl)VLRDN
notes: histone H4, residues 12-25, dimethylated on lysine 20; Peptide used in ITC
